This test deals with FlAsH-labeled TC-apo-sGCβ (rat sGCβ(1–385) with a TC motif) (rat, UniProt P20595 1-385, TC motif (CCPGCC) inserted at residue 239 to 244, FlAsH dye bound to the tetra-Cys (TC) motif; heme-free (apo)). The experiment in a line: cell-based or functional assay.

Here are results for one molecule from PMC11938259, “Heme delivery into soluble guanylyl cyclase requires a heme redox change and is regulated by NO and Hsp90 by distinct mechanisms” (The Journal of Biological Chemistry, 2025).

FlAsH-labeled TC-apo-sGCβ (rat sGCβ(1–385) with a TC motif), sequence (P20595 other isoform, or with tags, fused parts or gaps TC motif (CCPGCC) inserted at residue 239 to 244): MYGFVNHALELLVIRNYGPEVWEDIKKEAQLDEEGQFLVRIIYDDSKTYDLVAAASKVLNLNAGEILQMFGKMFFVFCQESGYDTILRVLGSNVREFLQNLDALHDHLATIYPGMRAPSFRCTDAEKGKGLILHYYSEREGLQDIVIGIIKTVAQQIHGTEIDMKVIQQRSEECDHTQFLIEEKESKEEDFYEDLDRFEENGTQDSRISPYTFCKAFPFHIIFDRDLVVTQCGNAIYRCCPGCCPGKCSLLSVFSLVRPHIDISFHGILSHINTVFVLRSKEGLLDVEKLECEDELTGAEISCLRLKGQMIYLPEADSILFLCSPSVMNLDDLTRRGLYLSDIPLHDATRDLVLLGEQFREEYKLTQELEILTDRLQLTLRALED

B1: glyceraldehyde 3-phosphate dehydrogenase (GAPDH), human (enzyme)
chain: not shown
Take B1: the “heme transfer (FlAsH fluorescence kinetics) from the GAPDH–heme complex to a preformed complex of GAPDH bound on FlAsH-TC-apo-sGCβ, against FlAsH-TC-apo-sGCβ alone (Fig. S4)” value came to 5 fold slower.
